The values below come from EP4674954A1.

Experiment [1] addresses mbIL-7-1 (CD52 signal peptide-IL-7-linker 1-BCMA extracellular domain-CD52). Description: flow cytometry, share of stained cells; TIL sample T001-1 electroporated with mbIL-7-1.
For experiment [2], the target named is mbIL-7-2 (CD52 signal peptide-IL-7-linker 2-BCMA extracellular domain-CD52). Description: flow cytometry, share of stained cells; TIL sample T002-2 electroporated with mbIL-7-2.
Experiment [3] has the same target. Description: flow cytometry, share of stained cells; TIL sample T003-2 electroporated with mbIL-7-2.
The target in experiment [4] is mbIL-7-7 (CD52 signal peptide-IL-7-linker 2-BCMA extracellular domain-CD8 transmembrane domain). Description: flow cytometry, share of stained cells; TIL sample T003-7 electroporated with mbIL-7-7.
mbIL-7-7 (CD52 signal peptide-IL-7-linker 2-BCMA extracellular domain-CD8 transmembrane domain), sequence (chain, as listed by the source limits assumed): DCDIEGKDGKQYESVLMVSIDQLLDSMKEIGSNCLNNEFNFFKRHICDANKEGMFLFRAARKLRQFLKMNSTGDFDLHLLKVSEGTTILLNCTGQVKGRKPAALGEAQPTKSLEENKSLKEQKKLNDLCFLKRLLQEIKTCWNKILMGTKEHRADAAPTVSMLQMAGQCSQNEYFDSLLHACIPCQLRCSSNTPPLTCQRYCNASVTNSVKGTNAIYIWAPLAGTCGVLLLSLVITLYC
Experiment [5] deals with mbIL-7-1 (CD52 signal peptide-IL-7-linker 1-BCMA extracellular domain-CD52). Description: flow cytometry, share of stained cells; TIL sample T004-1 electroporated with mbIL-7-1.
mbIL-7-1 (CD52 signal peptide-IL-7-linker 1-BCMA extracellular domain-CD52), sequence (chain, as listed by the source limits assumed): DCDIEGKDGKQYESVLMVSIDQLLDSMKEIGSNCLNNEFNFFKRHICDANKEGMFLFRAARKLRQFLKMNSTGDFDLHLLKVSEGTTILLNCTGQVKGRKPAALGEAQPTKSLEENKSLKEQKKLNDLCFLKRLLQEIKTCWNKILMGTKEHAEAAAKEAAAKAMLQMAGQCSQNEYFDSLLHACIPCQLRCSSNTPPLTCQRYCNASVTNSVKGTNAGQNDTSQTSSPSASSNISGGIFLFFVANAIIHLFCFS
For experiment [6], the target named is mbIL-7-3 (CD52 signal peptide-IL-7-linker 4-point-mutated BCMA extracellular domain-CD52). Description: flow cytometry, share of stained cells; TIL sample T005-3 electroporated with mbIL-7-3.
mbIL-7-3 (CD52 signal peptide-IL-7-linker 4-point-mutated BCMA extracellular domain-CD52), sequence (chain, as listed by the source limits assumed, change not shown): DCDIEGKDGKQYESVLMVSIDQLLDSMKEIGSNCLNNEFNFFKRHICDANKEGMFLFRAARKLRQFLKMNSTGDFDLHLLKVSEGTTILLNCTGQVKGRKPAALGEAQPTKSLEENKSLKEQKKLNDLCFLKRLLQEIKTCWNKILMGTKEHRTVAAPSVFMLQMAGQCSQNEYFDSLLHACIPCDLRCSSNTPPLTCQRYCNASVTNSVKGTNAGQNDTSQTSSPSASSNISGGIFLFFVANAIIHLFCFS
In experiment [7] the target is mbIL-7-5 (CD52 signal peptide-IL-7-point mutation BCMA extracellular domain-linker 4-CD52). Description: flow cytometry, share of stained cells; TIL sample T006-5 electroporated with mbIL-7-5.
mbIL-7-5 (CD52 signal peptide-IL-7-point mutation BCMA extracellular domain-linker 4-CD52), sequence (chain, as listed by the source limits assumed, change not shown): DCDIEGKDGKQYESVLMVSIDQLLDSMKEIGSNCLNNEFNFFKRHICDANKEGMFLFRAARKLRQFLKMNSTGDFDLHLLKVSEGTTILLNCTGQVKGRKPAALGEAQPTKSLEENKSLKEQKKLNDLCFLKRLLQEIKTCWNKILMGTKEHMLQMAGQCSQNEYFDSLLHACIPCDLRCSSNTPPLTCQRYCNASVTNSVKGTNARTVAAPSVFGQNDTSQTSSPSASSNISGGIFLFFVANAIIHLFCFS
The target in experiment [8] is mbIL-7-6 (CD52 signal peptide-IL-7-linker 3-BCMA extracellular domain-CD52). Description: flow cytometry, share of stained cells; TIL sample T007-6 electroporated with mbIL-7-6.
mbIL-7-6 (CD52 signal peptide-IL-7-linker 3-BCMA extracellular domain-CD52), sequence (chain, as listed by the source limits assumed): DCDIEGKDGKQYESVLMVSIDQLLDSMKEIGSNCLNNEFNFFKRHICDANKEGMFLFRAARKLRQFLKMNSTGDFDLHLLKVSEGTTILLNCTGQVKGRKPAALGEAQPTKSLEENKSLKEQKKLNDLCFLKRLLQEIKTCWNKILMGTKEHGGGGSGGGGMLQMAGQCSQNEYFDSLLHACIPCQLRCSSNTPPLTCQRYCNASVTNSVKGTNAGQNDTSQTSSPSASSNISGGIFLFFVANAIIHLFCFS
The target of experiment [9] is mbIL-7-8 (IL-7 signal peptide-IL-7-linker 2-truncated BCMA extracellular domain-CD52). Description: flow cytometry, share of stained cells; TIL sample T008-8 electroporated with mbIL-7-8.
mbIL-7-8 (IL-7 signal peptide-IL-7-linker 2-truncated BCMA extracellular domain-CD52), sequence (chain, as listed by the source limits assumed): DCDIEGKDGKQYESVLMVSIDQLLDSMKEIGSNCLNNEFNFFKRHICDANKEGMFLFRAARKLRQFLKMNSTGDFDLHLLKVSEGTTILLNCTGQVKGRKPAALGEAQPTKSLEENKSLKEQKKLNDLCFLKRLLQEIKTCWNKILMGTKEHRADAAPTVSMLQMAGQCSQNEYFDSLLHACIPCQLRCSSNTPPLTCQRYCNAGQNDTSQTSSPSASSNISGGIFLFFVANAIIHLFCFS
The target of experiment [10] is mbIL-7-3 (CD52 signal peptide-IL-7-linker 4-point-mutated BCMA extracellular domain-CD52). Description: flow cytometry, share of stained cells; TIL sample T009-3 electroporated with mbIL-7-3.
In experiment [11] the target is mbIL-7-4 (CD52 signal peptide-IL-7-linker 5-truncated point-mutated BCMA extracellular domain-CD8 extracellular hinge region-CD52). Description: flow cytometry, share of stained cells; TIL sample T010-4 electroporated with mbIL-7-4.
mbIL-7-4 (CD52 signal peptide-IL-7-linker 5-truncated point-mutated BCMA extracellular domain-CD8 extracellular hinge region-CD52), sequence (chain, as listed by the source limits assumed, change not shown): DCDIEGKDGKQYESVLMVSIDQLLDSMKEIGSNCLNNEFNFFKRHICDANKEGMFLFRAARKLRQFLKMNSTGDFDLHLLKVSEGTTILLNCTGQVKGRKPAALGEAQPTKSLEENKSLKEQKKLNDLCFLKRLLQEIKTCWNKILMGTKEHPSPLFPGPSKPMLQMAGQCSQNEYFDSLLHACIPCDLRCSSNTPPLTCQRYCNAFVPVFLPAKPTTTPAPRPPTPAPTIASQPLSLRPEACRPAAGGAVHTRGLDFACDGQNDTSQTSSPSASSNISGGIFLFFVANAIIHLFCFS
In experiment [12] the target is mbIL-7-9 (CD52 signal peptide-IL-7-linker 5-truncated point-mutated BCMA extracellular domain-CD52). Description: flow cytometry, share of stained cells; TIL sample T011-9 electroporated with mbIL-7-9.
mbIL-7-9 (CD52 signal peptide-IL-7-linker 5-truncated point-mutated BCMA extracellular domain-CD52), sequence (chain, as listed by the source limits assumed, change not shown): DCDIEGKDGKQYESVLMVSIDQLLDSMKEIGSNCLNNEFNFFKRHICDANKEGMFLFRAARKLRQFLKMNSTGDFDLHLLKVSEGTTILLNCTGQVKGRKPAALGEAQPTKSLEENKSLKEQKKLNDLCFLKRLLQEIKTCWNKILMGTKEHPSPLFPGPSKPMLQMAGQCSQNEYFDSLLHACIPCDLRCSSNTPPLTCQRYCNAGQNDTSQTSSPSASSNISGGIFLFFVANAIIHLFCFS
Experiment [13] has the same target. Description: flow cytometry, share of stained cells; TIL sample T012-9 electroporated with mbIL-7-9.
Experiment [14] has the same target. Description: flow cytometry, share of stained cells; TIL sample T013-9 electroporated with mbIL-7-9.
For experiment [15] the target is unchanged. Description: flow cytometry, share of stained cells; TIL sample T014-9 electroporated with mbIL-7-9.

mbIL-7-2 (CD52 signal peptide-IL-7-linker 2-BCMA extracellular domain-CD52), sequence (chain, as listed by the source limits assumed): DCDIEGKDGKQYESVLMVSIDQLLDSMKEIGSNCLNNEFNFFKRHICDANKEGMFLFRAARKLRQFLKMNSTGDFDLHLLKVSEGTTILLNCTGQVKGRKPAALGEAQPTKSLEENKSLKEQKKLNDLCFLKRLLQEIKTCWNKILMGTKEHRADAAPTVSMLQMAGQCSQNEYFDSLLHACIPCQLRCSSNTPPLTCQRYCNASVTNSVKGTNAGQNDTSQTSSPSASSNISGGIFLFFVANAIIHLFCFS

“BCMA flow antibody (purchased from Biolegend, catalog number 357504)”: the Positive rate (%) was determined as 49.3% in [1]; 45.4% in experiment [2]; 51.2% in experiment [3]; 15.1% in [4]; 40.2% in experiment [5]; 54.1% in [6]. Moreover, the Positive rate (%) is 44.7% in experiment [7]; 12.3% in [8]; 42.5% in experiment [9]; 52% in experiment [10]; 43.8% in experiment [11]; 47.6% in experiment [12]. Also, the Positive rate (%) in experiment [13] was determined as 50.1%; in [14], 45.9%; in [15], 41.1%.
